T1: murine TFPI 1-160 (mouse), O54819
T1 chain: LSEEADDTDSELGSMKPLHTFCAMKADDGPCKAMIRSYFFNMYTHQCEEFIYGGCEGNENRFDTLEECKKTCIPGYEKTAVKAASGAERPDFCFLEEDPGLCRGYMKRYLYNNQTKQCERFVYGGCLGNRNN

B1: JBT0602 (peptide)
chain: FLSKKNVFVFGYFERLRAKL
B2: JBT0603 (peptide)
chain: FQLKKNVFVFGYFERLRAKL
B3: JBT0572 (peptide)
chain: FQSFKNVFVFGYFERLRAKL
B4: JBT0583 (peptide)
chain: FQSKKNVFVFGYFERLRAFL
B5: JBT0577 (peptide)
chain: FQSKKNVFVFGFFERLRAKL
B6: JBT0783 (peptide)
chain: LKARLREFYGFVFVNKKSQF
B7: JBT0574 (peptide)
chain: FQSKKFVFVFGYFERLRAKL
B8: JBT0516 (peptide)
chain: FESKGNVFVFGYFERLRAKL
B9: JBT0581 (peptide)
chain: FQSKKNVFVFGYFERLFAKL
B10: JBT0806 (peptide)
chain: FQSKGNVFVAGYFARLRAKL
B11: JBT0591 (peptide)
chain: FQSKKNVDVFGYFERLRAKL
B12: JBT0525 (peptide)
chain: FQSKGNVFVFAYFERLRAKL
B13: JBT0586 (peptide)
chain: FDSKKNVFVFGYFERLRAKL
B14: JBT0597 (peptide)
chain: FQSKKNVFVFGYFERDRAKL
B15: JBT0604 (peptide)
chain: FQSLKNVFVFGYFERLRAKL
B16: JBT0605 (peptide)
chain: FQSKLNVFVFGYFERLRAKL
B17: JBT0588 (peptide)
chain: FQSDKNVFVFGYFERLRAKL
B18: JBT0497 (peptide)
chain: AQSKGNVFVFGYFERLRAKL
B19: JBT0580 (peptide)
chain: FQSKKNVFVFGYFERFRAKL
B20: JBT0571 (peptide)
chain: FQFKKNVFVFGYFERLRAKL
B21: JBT0570 (peptide)
chain: FFSKKNVFVFGYFERLRAKL
B22: JBT1278 (peptide)
chain: FQSVGNVFVDGYFERLSAKL
B23: JBT0594 (peptide)
chain: FQSKKNVFVFGDFERLRAKL
B24: JBT0576 (peptide)
chain: FQSKKNVFVFFYFERLRAKL
B25: JBT0520 (peptide)
chain: FQSKGDVFVFGYFERLRAKL
B26: JBT0720 (peptide)
chain: FQSKGNVFVTGYFARLRAKL
B27: JBT0592 (peptide)
chain: FQSKKNVFDFGYFERLRAKL
B28: JBT0590 (peptide)
chain: FQSKKNDFVFGYFERLRAKL
B29: JBT0598 (peptide)
chain: FQSKKNVFVFGYFERLDAKL
B30: JBT0579 (peptide)
chain: FQSKKNVFVFGYFEFLRAKL
B31: JBT0573 (peptide)
chain: FQSKFNVFVFGYFERLRAKL
B32: JBT0528 (peptide)
chain: FQSKGNVFVFGYFDRLRAKL
B33: JBT0606 (peptide)
chain: FQSKKLVFVFGYFERLRAKL
B34: JBT0487 (peptide)
chain: FQSKNNVFVHGYFERLRAKL
B35: JBT0582 (peptide)
chain: FQSKKNVFVFGYFERLRFKL
B36: JBT1837 (peptide)
peptide: SYYKWHCAMRDMKGTMTCVWVKF
modifications: not checked

Where only a bound is given, the exact number is not on record here.

In one assay the target is T2, human Tissue Factor Pathway Inhibitor-1α (TFPI-1α) (human), P10646. The assay is described as follows: competition. The note with it: modification not given.
T2 sequence (P10646 29-304): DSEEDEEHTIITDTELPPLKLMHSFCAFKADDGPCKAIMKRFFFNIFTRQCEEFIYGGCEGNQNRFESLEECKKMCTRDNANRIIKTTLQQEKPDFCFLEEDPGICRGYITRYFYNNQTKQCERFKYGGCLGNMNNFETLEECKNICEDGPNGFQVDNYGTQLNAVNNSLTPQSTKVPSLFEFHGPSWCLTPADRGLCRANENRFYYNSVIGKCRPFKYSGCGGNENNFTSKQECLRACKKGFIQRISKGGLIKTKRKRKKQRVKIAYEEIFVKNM
The molecule B1 yielded an IC50 of over 5000 nM.
B2 had an IC50 of over 5000 nM.
Still for that read-out and setting: for B3 the value was over 5000 nM; for B4, over 5000 nM.
Still for that read-out and setting: the figure for B5 is over 5000 nM.
Still for that read-out and setting: for B6 the value was over 1670 nM; for B7, over 5000 nM; for B8, 1190 nM.
In turn, B9 registered a 50% inhibitory concentration (IC50) of over 5000 nM.
Molecule B10 gave an IC50 of 42 nM.
The same measure, in the same setting: the figure for B11 is over 5000 nM; for B12 it is over 5000 nM.
The same measure, in the same setting: for B13 the value was over 1670 nM; for B14, over 5000 nM; for B15, over 1670 nM.
Same read-out and setting: the figure for B16 is over 1670 nM; for B17 it is over 5000 nM.
The molecule B18 registered an IC50 of 100 nM.
Same read-out and setting: for B19 the value was over 5000 nM; for B20, over 5000 nM.
The same measure, in the same setting: for B21 the value was over 5000 nM.
Same read-out and setting: for B22 the value was 73 nM.
Molecule B23 yielded an IC50 of over 5000 nM.
For B24, the IC50 is over 1670 nM.
Turning to B25, the concentration for half-maximal inhibition (IC50) was 188 nM.
B26 came in with an IC50 of 27 nM.
The same measure, in the same setting: for B27 the value was over 5000 nM; for B28, over 5000 nM; for B29, over 5000 nM.
Still for that read-out and setting: the figure for B30 is over 5000 nM.
Still for that read-out and setting: for B31 the value was 1370 nM; for B32, 107 nM; for B33, over 5000 nM.
Molecule B34 came in with a half-inhibitory concentration (IC50) of 40 nM.
On the same count and under the same terms, the figure for B35 is over 5000 nM.

Another assay addresses T1, murine TFPI 1-160 (mouse), O54819. The assay can be described thus: cell-based or functional assay.
Conditions: not given
On to B36, for which the FXa inhibition assay was over 10 µM.

For a further assay, the target named is T2, human Tissue Factor Pathway ….
Test: not given
The settings on record: modification not given.
B26: the 50% effective concentration (EC50) turned out to be 220 nM.

Values taken from US20180155399A1.
